Experimental data: publication PMC9006298

Molecular target: p.Arg127Gln GPIbα (amino acids Met1-Glu301) (human) (UniProt P07359)
Assay: SPR

Sequence of UniProt P07359 (P07359 17-301 R127Q): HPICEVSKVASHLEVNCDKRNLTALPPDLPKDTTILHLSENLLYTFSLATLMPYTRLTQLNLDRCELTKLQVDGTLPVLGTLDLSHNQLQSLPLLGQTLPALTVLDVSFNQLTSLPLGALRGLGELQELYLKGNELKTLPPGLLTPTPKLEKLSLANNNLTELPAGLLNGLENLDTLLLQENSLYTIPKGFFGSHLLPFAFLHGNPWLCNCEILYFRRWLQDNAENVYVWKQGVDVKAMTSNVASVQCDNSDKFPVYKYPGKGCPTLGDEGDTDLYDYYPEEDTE

Kd: 2.04 µM
Substance: VWF A1 domain (domain or fragment)
